Source: patent US7588931B2, “High arachidonic acid producing strains of Yarrowia lipolytica” (E. I. du Pont de Nemours and Company, priority 2004, dated 2009)

System: β-glucuronidase (GUS) reporter
Test: Comparative analysis of promoters by fluorometric assay of GUS expression
Assay type: cell-based, Yarrowia lipolytica
Conditions: for GUS activity relative to the GPD promoter: ATCC #76982 strains, FIG. 6A
Method: GUS activity was also assayed by fluorometric determination of the production of 4-methylumbelliferone (4-MU) from the corresponding substrate β-glucuronide (Jefferson, R. A. Plant Mol. Biol. Reporter 5:387-405 (1987)).
Yarrowia lipolytica ATCC #76982 strains containing plasmids pY5-30, PYZGDG, PYZGMG, pDMW212 and pDMW214 were grown from single colonies in 3 mL MM (as described above) at 30° C. to an OD600˜1.0. Then, the 3 mL cultures were each added to a 500 mL flask containing 50 mL MM and grown in a shaking incubator at 30° C. for about 24 hrs. The cells were collected by centrifugation, resuspended in Promega Cell Lysis Buffer and lysed using the BIO 101 Biopulverizer system (Vista, Calif.). After centrifugation, the supernatants were removed and kept on ice.
Similarly, Y. lipolytica strain Y2034 containing plasmids pY5-30, pYAT-GUS, pYGPAT-GUS and pDMW214 constructs, respectively, were grown from single colonies in 10 mL SD medium at 30° C. for 48 hrs to an OD600˜5.0. Two mL of each culture was collected for GUS activity assays, as described below, while 5 mL of each culture was switched into HGM.
Specifically, cells from the 5 mL aliquot were collected by centrifugation, washed once with 5 mL of HGM and resuspended in HGM. The cultures in HGM were then grown in a shaking incubator at 30° C. for 24 hrs. Two mL of each HGM culture were collected for the GUS activity assay, while the remaining culture was allowed to grow for an additional 96 hrs before collecting an additional 2 mL of each culture for the assay.
Each 2 mL culture sample in SD medium was resuspended in 1 mL of 0.5× cell culture lysis reagent (Promega). Resuspended cells were mixed with 0.6 mL of glass beads (0.5 mm diameter) in a 2.0 mL screw cap tube with a rubber O-ring. The cells were then homogenized in a Biospec mini beadbeater (Bartlesville, Okla.) at the highest setting for 90 sec. The homogenization mixtures were centrifuged for 2 min at 14,000 rpm in an Eppendof centrifuge to remove cell debris and beads. The supernatant was used for GUS assay and protein determination.
For each fluorometric assay, 100 μl of extract was added to […] of GUS assay buffer (2 mM 4-methylumbelliferyl-β-D-glucuronide (“MUG”) in extraction buffer) or 200 μl of extract was added to 800 μl of GUS assay buffer. The mixtures were placed at 37° C. Aliquots of 100 μl were taken at 0, 30 and 60 min time points and added to 900 μl of stop buffer (1 M Na2CO3). Each time point was read using a CytoFluor Series 4000 Fluorescence Multi-Well Plate Reader (PerSeptive Biosystems, Framingham, Mass.) set to an excitation wavelength of 360 nm and an emission wavelength of 455 nm. Total protein concentration of each sample was determined using 10 μl of extract and 200 μl of BioRad Bradford reagent or 20 μl of extract and 980 μl of BioRad Bradford reagent (Bradford, M. M. Anal. Biochem. 72:248-254 (1976)). GUS activity was expressed as nmoles of 4-MU per minute per mg of protein.

B1: FBA: Y. lipolytica fructose-bisphosphate aldolase promoter, SEQ ID NO:161 (nucleic acid, listed as Yarrowia lipolytica)
DNA: TAAACAGTGTACGCAGTACTATAGAGGAACAATTGCCCCGGAGAAGACGGCCAGGCCGCCTAGATGACAAATTCAACAACTCACAGCTGACTTTCTGCCATTGCCACTAGGGGGGGCCTTTTTATATGGCCAAGCCAAGCTCTCCACGTCGGTTGGGCTGCACCCAACAATAAATGGGTAGGGTTGCACCAACAAAGGGATGGGATGGGGGGTAGAAGATACGAGGATAACGGGGCTCAATGGCACAAATAAGAACGAATACTGCCATTAAGACTCGTGATCCAGCGACTGACACCATTGCATCATCTAAGGGCCTCAAAACTACCTCGGAACTGCTGCGCTGATCTGGACACCACAGAGGTTCCGAGCACTTTAGGTTGCACCAAATGTCCCACCAGGTGCAGGCAGAAAACGCTGGAACAGCGTGTACAGTTTGTCTTAACAAAAAGTGAGGGCGCTGAGGTCGAGCAGGGTGGTGTGACTTGTTATAGCCTTTAGAGCTGCGAAAGCGCGTATGGATTTGGCTCATCAGGCCAGATTGAGGGTCTGTGGACACATGTCATGTTAGTGTACTTCAATCGCCCCCTGGATATAGCCCCGACAATAGGCCGTGGCCTCATTTTTTTGCCTTCCGCACATTTCCATTGCTCGGTACCCACACCTTGCTTCTCCTGCACTTGCCAACCTTAATACTGGTTTACATTGACCAACATCTTACAAGCGGGGGGCTTGTCTAGGGTATATATAAACAGTGGCTCTCCCAATCGGTTGCCAGTCTCTTTTTTCCTTTCTTTCCCCACAGATTCGAAATCTAAACTACACATCACACAATGCCTGTTACTGACGTCCTTAAGCGAAAGTCCGGTGTCATCGTCGGCGACGATGTCCGAGCCGTGAGTATCCACGACAAGATCAGTGTCGAGACGACGCGTTTTGTGTAATGACACAATCCGAAAGTCGCTAGCAACACACACTCTCTACACAAACTAACCCAGCTCTCC
modifications: misc_feature: Promoter FBA
GUS activity relative to the GPD promoter: 2.2 times

B2: FBAIN: fructose-bisphosphate aldolase + intron promoter, SEQ ID NO:162 (nucleic acid, listed as Yarrowia lipolytica)
DNA: AAATTGCCCCGGAGAAGACGGCCAGGCCGCCTAGATGACAAATTCAACAACTCACAGCTGACTTTCTGCCATTGCCACTAGGGGGGGGCCTTTTTATATGGCCAAGCCAAGCTCTCCACGTCGGTTGGGCTGCACCCAACAATAAATGGGTAGGGTTGCACCAACAAAGGGATGGGATGGGGGGTAGAAGATACGAGGATAACGGGGCTCAATGGCACAAATAAGAACGAATACTGCCATTAAGACTCGTGATCCAGCGACTGACACCATTGCATCATCTAAGGGCCTCAAAACTACCTCGGAACTGCTGCGCTGATCTGGACACCACAGAGGTTCCGAGCACTTTAGGTTGCACCAAATGTCCCACCAGGTGCAGGCAGAAAACGCTGGAACAGCGTGTACAGTTTGTCTTAACAAAAAGTGAGGGCGCTGAGGTCGAGCAGGGTGGTGTGACTTGTTATAGCCTTTAGAGCTGCGAAAGCGCGTATGGATTTGGCTCATCAGGCCAGATTGAGGGTCTGTGGACACATGTCATGTTAGTGTACTTCAATCGCCCCCTGGATATAGCCCCGACAATAGGCCGTGGCCTCATTTTTTTGCCTTCCGCACATTTCCATTGCTCGGTACCCACACCTTGCTTCTCCTGCACTTGCCAACCTTAATACTGGTTTACATTGACCAACATCTTACAAGCGGGGGGCTTGTCTAGGGTATATATAAACAGTGGCTCTCCCAATCGGTTGCCAGTCTCTTTTTTCCTTTCTTTCCCCACAGATTCGAAATCTAAACTACACATCACACAATGCCTGTTACTGACGTCCTTAAGCGAAAGTCCGGTGTCATCGTCGGCGACGATGTCCGAGCCGTGAGTATCCACGACAAGATCAGTGTCGAGACGACGCGTTTTGTGTAATGACACAATCCGAAAGTCGCTAGCAACACACACTCTCTACACAAACTAACCCAGCTCTCC
modifications: misc_feature: Promoter FBAIN
GUS activity relative to the GPD promoter: about 6.6 times | GUS activity (strain Y2034, 24 hr, HGM): 30.694 nmoles of 4-MU per minute per mg of protein | GUS activity (strain Y2034, 48 hr, SD): 43.333 nmoles of 4-MU per minute per mg of protein | GUS activity (strain Y2034, 120 hr HGM): 17.200 nmoles of 4-MU per minute per mg of protein | reduction of promoter activity (switched from SD medium into HGM for 24 hrs): 30%
